Measured values from a protein production outcome set (Wang et al. 2014).

Assay: label from the status in PepcDB records

| Sequence | protein production |
| --- | --- |
| MAAPRPGPLRPARGFAPMNNVNGILLVVAAMAAFSIEDMFIKKLSVTVPIGQILLVLGVFCSAAFLTMAVATRKRVFSRAAWSPLLLIRAATEAVSALTFATALSLVDLSTVAAVFQAMPLVVTMGAALFLGEQVGWRRWSAITVGFVGVLMIIRPGMAGFQPAQLLVVASVISVAARDLITRRIDAHVASAVVSFQAYLALILGGAGILLVSGTALVPVEPGHWGPYAGAILFGVLGYYGIVTAMRVGEASVVTPFRYTRLLFSLLAGVLVFGERPDWPTLAGGALIIGSGLYTFLRERRLARELAAVPA | failed |
| MNIREIAAKCSKCGYCTTCPTYRIEGWETVSPRGKIQLALKYVDGEIDVDQKIVKDIFKCSVCGLCQEVCPVELPLIDFWEELRRTLVQKGLAPLSVHRKLREITFRNYNPYSGDQERRGDWADFEIKPAKTLYFAGCTASFRLQNLAKSTASVLEKLGIDFTIAGKNEYCCGSPFLRTGQKDIVERLFEKNYAYWQKMGIERIITSCPGCYRTISLDYPKIAEEKGYEFDIEVVHTVSILDKMGEFEKIDLKATYHDPCHLGRHMGMYEEPRNVIKRLGINFVEMERNREQALCCGAGGGLRSQFPEISFEIGRQRVLEAMETGAEYLITCCPFCEYHLSKSAEKLGNRIKVVDLVEIAEKLISP | failed |
| QKNPDSYNGAVRENYTWSQDYTDLEVRVPVPKHVVKGKQVSVALSSSSIRVAMLEENGERVLMEGKLTHKINTESSLWSLEPGKCVLVNLSKVGEYWWNAILEGEEPIDID | not failed |
| MLFIPPPLLCLFIAIAMYFLPKIASYSVHFSVIVFVISLSFLIALSSVMQSLYVKPPLILVTLKAQQN | failed |
| MRRKLRYLNYRILIPYLILVVVGIILVYSASSDILLVNGFKPDVYGIRQAIYAAVAFFGFGIPFFALRLKVIKNPKFVAGFLIICILMLLWLVFLRFAHGSAAAVNGAVGWINLGFINLQPLEVTKLALVIYLAYVLDRRDGKLVRGKIKDNLSHPAMLAGFLMCLVIVEPDFGGTAILFMITLVMFSVSGVPVRLALTWLLGIILLVGAVFILVVLWNPKFLQDSYQFQRLMSFLHPFQLERKGGAQLVNSYYAIHNGGLFGVGLGNSMQKRGYLPEPYTDFILSITAEEIGVIFTIVLVGLLFYLMWQIMEVGINAVSQFDALICFGVTTIIFTEALFNIGAVLGLLPITGVTLPFISYGGSSMIVLTAAIGLVLNVSANEKMLKEKDETIA | failed |
| VVEFTTCPDKPGIPVKPSVKGKIHSHSFKITWDPPKDNGGATINKYVVEMAEGSNGNKWEMIYSGATREHLCDRLNPGCFYRLRVYCISDGGQSAVSESLLVQTPAV | not failed |
| MEEKQILCVGLVVLDVISLVDKYPKEDSEIRCLSQRWQRGGNASNSCTILSLLGAPCAFMGSMAPGHVADFVLDDLRRYSVDLRYTVFQTTGSVPIATVIINEASGSRTILYYDRSLPDVSATDFEKVDLTQFKWIHIEGRNASEQVKMLQRIDAHNTRQPPEQKIRVSVEVEKPREELFQLFGYGDVVFVSKDVAKHLGFQSAEEALRGLYGRVRKGAVLVCAWAEEGADALGPDGKLLHSDAFPPPRVVDTLGAGDTFNASVIFSLSQGRSVQEALRFGCQVAGKKCGLQGFDGIV | failed |
| SVDVEFQKAVEDILRKNIKQGKQYAGSDLFDRAFVVAMDPYSGEVLALAGQKLNDKGEFDDYSLGTFTTAYAMGSAVKGSTILGGIMDGAISNKTVFTDQPIALKGTKPKSSWFNRTGAGNRPLDPVGALEISSNSYMYQVAMKMGGAKYVPNGPLRAPLSTFDDMRYYYNQFGLGVKTGIDLPGEQVGYKGDDQTIGKILDFAIGQYDSYTPLQMAQYVSTIANGGSRIAPSMVKEIRNPSTNGDSVGTLATANEPKVLNKIGVSDNDIKTVQKGFYEVTHGSTGTARTVFTSSDYDVAGKTGTADAFYDGPKEGNKMASVWNTTFVGYAPVKKPEIAISVVVPWIYRPYGTDQKTNMKISKEVFDKYFELKKERAESNKDASKVEQPINNKEAAAKAQSEQTEN | failed |
| LTTAGYYAAVDWGTSSFRLWIIGEDGAVLAERRSAEGMTTAAKTGFHTILDGHLAAVSAPAHLPIIICGMAGARQGWKEAGYIETPAALAEIAGRATAIPDVDRDIRILPGLAQRDRRHPDVMRGEETQLLGAAAHLGAGSHLVCMPGTHSKWVRLADDRVEGFSTFMTGELFDTIARHTILSHAVAEADTFAAGSAAFTDAVSRTRENPALATNLLFSVRAGQLLHGTAAADARAQLSGTLIGLEIAGALAGSGSVDGVCLVGSGGLGTLYRTALESQGLNVRAVDADEAVRAGLSAAARAIWPL | not failed |
| MKASSLAFSLLSAAFYLLWTPSTGLKTLNLGSCVIATNLQEIRNGFSEIRGSVQAKDGNIDIRILRRTESLQDTKPANRCCLLRHLLRLYLDRVFKNYQTPDHYTLRKISSLANSFLTIKKDLRLCHAHMTCHCGEEAMKKYSQILSHFEKLEPQAAVVKALGELDILLQWMEETE | failed |
| MSASRRSGTTDELGPDGPDPERDGPDGADLLAALLDGMDAALCAFDADGVVTHWNREAERILGWTAAEAVGRRGFAGWAVRTADAEDVEARLMTAMQAPGRQVHEFALLTKDGGRVLVRTQSAAVHGPDGKPAGVYCAFSEVHTQIDLERSIALSEALFEDASWGVVLVDADLRPAVVNAHAARALGTGRTTVLGRPLGDLLSQGVEELESALTHVLAEGAPPAPAEMWVSVRTAEGEKRRCWRSGFLRLASPLAEEPVPLGVGWLFQDITEAKQTEQEAALLRFRTNQLHRAARAAAECEDPGEAATVHLDFSLAGFADHALIDRVAGGPVADGDRDGDGPPVRLVRAADTPSGAPGPSLLVGKAELPVWYAEGHPALQCVERAGSVRASAGVSDAERAREWAISRQWPGDAVHALCAVLRSRGRTLGVVTFLRGAGRSQFERADAVYAEDVAVRIAAALDLAGLAGLAGPAGER | failed |
| MGHHHHHHSHPQSAAKPGLHFIDQHRAALIARVTNVEWLLDALYGKVLTDEQYQAVRAEPTNPSKMRKLFSFTPAWNWTCKDLLLQALRESQSYLVEDLERS | failed |
| MKKVFIPINTKIPVERQFPNRVPIWGNYEFIISTKEPEQEYDYVVVLDDIEYSLRLMCCKQNICLFTGEPPYVKLYPRKYLNQFGHVYTCQSSVLKRDNACLSYPALPWMLYYNFYNDKQKEELLIDYDFLKNRPTLQRKNKICLFTSNKKISKGHIERIKFALKLQEEMPDLIDIYGSGFTNVDYKYEVMVQYKYAIVIENCSYPYYWTEKLADTFLSGCYPIYFGDPHIGDFFSKEEMAVIDIRNFDESKQTIKKIIDNNVYEKQYENICHARDKILDKYNMFSLISSTLDSIPAKLDKEKLLLSPMRLSVFDRIRNRIYRLFYLEHHHHHH | failed |
| MIKQDVICYEKEDVVKRNNINITGGGEKTVLLAHGFGCDQNMWRFMLPELEKQFTVIVFDYVGSGQSDLESFSTKRYSSLEGYAKDVEEILVALDLVNVSIIGHSVSSIIAGIASTHVGDRISDITMICPSPCFMNFPPDYVGGFERDDLEELINLMDKNYIGWANYLAPLVMGASHSSELIGELSGSFCTTDPIVAKTFAKATFFSDYRSLLEDISTPALIFQSAKDSLASPEVGQYMAENIPNSQLELIQAEGHCLHMTDAGLITPLLIHFIQNNQTRA | not failed |
| MTEDTADSGTGGRGPTRRHLVRRALALGGALAVAPFPAGPAKAVPPPRHPHRTLRHGSPERAGLLPDHLRGLVTDAESFLGPSPTHPWYAGAVLLAGRGDTVALHQPIGTAVRYSAYDAKTDTGVEFPAERQIPMATDTVFDLASVSKLFTSLLAVQQLERGALELEARVASYLPDFAGAGKQDVTIRQLLTHTSGFRAWLPLYKAPSRAEKLRLIWNEAPLSPPGTKYLYSDLNLISLQLVLEEITGHPLDALLRDEITAPLGLRSTRYNPPAAWKPRIAATEDARPPWSGLDRGLVWGEVHDENAFGFGGVAGHAGVFSCAWDLAVLGRTLLNGGTYGHTRILAPESVELLFTDFNTAFPGDEHGLGFELYQHWYMGAMATPRTAGHTGFTGTSLVLDPTTDSFLIVLGNSVHPVRTWRSGSAPRAAAGNHLARAVQVRPARGRTSWFSGMATAASATLTLPELDTAGTADTAETTGTADSTTADSGGRLRCALWWDTEPRSDTLFLEASADDGASWQPVPFTTACDGEEAREHPTGSVTGWSGRVWHRLHADLPRARRLTLRWRYTTDRLYVGRGAYVDAVRVESGGRVLFDEARPTDAARIEAAGWTPSEN | failed |
| MKNKLAITKLSNNVFLLLCTALTFTPIANAAEVIELTIAEPSALKPDFIGYNANMMSAMSTNPWDRTELTQLYKNTGTSIIRYPGGTIANNFDWPTGNQIKINSSGEESLGSYDYKISNFKTGYQNAGFEPIFVVNLLTRDLQHTLDGLADATAKSLPINRIELGNEFFLKDEAYVDMFPSGQDYVSKADIWTDAIKAIYPHVEIAYVSTMKKDPRSLEWNEKISQCTKCDAIIIHTYTRSELNPVLPADKSTSYFGTNEEQNQQWQQFITNSGVDIMLAQPFEAWHGYTSLNNLPSDKKIWITEFNMKDGTGPTRNTWAHALFNANQLQSFLTDGRVEIALLHNLITGAKSGSHYLGNTFSGLTIDHGQGDLSSQKYSLSAGGIAMRAFGSVLKGMDTIAKINLSDTPTVSPTGYADYDAIYGWQGSNSANEEQRYLLINTSSVSYTVNTENLTTSNKSVRQYWTKPQTFIHSEEVLSGGMVNSLPTLLKLPAYSITVIGETAIELPSNYQQTLTLTATDDHFTKEANPNGKGQPTASQININNSEGDQSRPHIKFNTNQVKGSIESVTLKVYSESVTDTVSAHKINNEWDEYELTWNTMPTLGEFINSASADKNAWLEINVTASLLKSDSLLSFALTNSLTSLNKFSSKEGNKAPELIITTSNAVINVADTNITKDDANILQYYSNSLADAVSDDDNDKLSFYKTSGPSWLMLWSNGKIEGTPTADDIGENTFAIKVSDNTGQASATTALNLTINVISDAPTNAAPVWNNIQNILQQATENISYNSNILALATDADNDALIFAKVSGPDWLSLSDAGEVTGTATNSDIGENNVIVSVTDGTNNSNEFINNELIITVTAEIAVEPINNAPTWSNENIALELATQEQAYTNNIMTFTNDLDGDILVFAKVSGPQWLTLSEAGDITGTPSGNDIGENIFILSVTDSDSDTAQVINNTFTIIVSTKPEPEPTPKTEEDNSEGGSISFSLLLLCFLRVFTMRNKF | failed |
| MEAETKTLPLENASILSEGSLQEGHRLWIGNLDPKITEYHLLKLLQKFGKVKQFDFLFHKSGALEGQPRGYCFVNFETKQEAEQAIQCLNGKLALSKKLVVRWAHAQVKRYDHNKNDKILPISLEPSSSTEPTQSNLSVTAKIKAIEAKLKMMAENPDAEYPAAPVYSYFKPPDKKRTTPYSRTAWKSRR | failed |
| TSVKEFAMKHDHFVVQSPDKPAQQLLLLFHGVGDNPVAMGEIGSWFAPLFPDALVVSVGGAEPSGNPAGRQWFSVQGITEDNRQARVDAIMPTFIETVRYWQKQSGVGANATALIGFSQGAIMALESIKAEPGLASRVIAFNGRYASLPETASTATTIHLIHGGEDPVIDLAHAVAAQEALISAGGDVTLDIVEDLGHAIDNRSMQLALDHLRYTIPKHY | failed |
| MDQLYQLAQAMIHNDLAVLSNPNVTLMVSGVILCFLVMENGFIPTAFLPGDTLLILTGVLIYQDVLHMGIVPLLMVATFIGTAIGYLQGYFLGHTQMYHRLLSHIDDKHQKKALYLIDKYGILTLLVARYIPFVRTIYPYIIGATGVSWSRFLVINFISSVMWITPLVGFGYVISHSKLANEYQTQFMSIIVYLPIVLLVSGIVTLIYKWLRKKKKL | failed |
| MRGANERKTERARGLRQSDNDAEALLWSELRDRRLNGFKFVRQVAVGPYFADFACRDERLVVEVDGSQHQIGSGDARRDKFMVMNGWSVLRFWNTDIFNDRAAVLETIVAVLEKRLVREVRSADLTFIPGEKKR | not failed |
| HQPNIIPYHKGFYRAFSKLHTTTFKYQAQSPQDIIDSLDDHHHLFLFVSEGLLKGYLYLEIDSQQSIAEIKYFSSHVDYRLKGIAFELLAYALQYAFDNFDIRKVYFKIRNKNNKLIERFNGLGFHINYEYIKFKFESRNVKDQTIPE | failed |
